In the supplement of paper PMC9112550, “Optimization of the antimicrobial peptide Bac7 by deep mutational scanning” (BMC Biology, 2022):

System: Escherichia coli TOP10
Assay: shrunken log2 fold change of peptide-encoding DNA abundance (4.5 h post-induction vs induction); higher = less antimicrobial activity (less host growth inhibition)
Conditions: time post-induction: 4.5 h; library: site-saturation at positions 5, 18, 19, 20
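Also: peptides expressed intracellularly from a pBAD plasmid library in pooled LB shake-flask culture, induced with 0.3% L-arabinose, DNA abundance read by NGS, three biological replicates, DESeq2 with apeglm shrinkage.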

RRIRPRPPRLPRPRPRPFKMPRP
shrunken log2 fold change: -0.384

RRIRPRPPRLPRPRPRPFKRPRP
shrunken log2 fold change: -0.00475

RRIRPRPPRLPRPRPRPFLKPRP
shrunken log2 fold change: -0.159

RRIRPRPPRLPRPRPRPFMAPRP
shrunken log2 fold change: -0.305

RRIRPRPPRLPRPRPRPFMDPRP
shrunken log2 fold change: -0.248

RRIRPRPPRLPRPRPRPFNCPRP
shrunken log2 fold change: -0.537

RRIRPRPPRLPRPRPRPFPCPRP
shrunken log2 fold change: -0.0101

RRIRPRPPRLPRPRPRPFSFPRP
shrunken log2 fold change: -0.0166

RRIRPRPPRLPRPRPRPFSRPRP
shrunken log2 fold change: -0.099

RRIRPRPPRLPRPRPRPFTRPRP
shrunken log2 fold change: -0.00841

RRIRPRPPRLPRPRPRPFTTPRP
shrunken log2 fold change: -0.0187

RRIRPRPPRLPRPRPRPFWCPRP
shrunken log2 fold change: -0.0114

RRIRPRPPRLPRPRPRPFWQPRP
shrunken log2 fold change: 0.00477

RRIRPRPPRLPRPRPRPFYPPRP
shrunken log2 fold change: -0.854

RRIRPRPPRLPRPRPRPFYTPRP
shrunken log2 fold change: -0.429

RRIRPRPPRLPRPRPRPGADPRP
shrunken log2 fold change: 0.407

RRIRPRPPRLPRPRPRPGDKPRP
shrunken log2 fold change: -0.307

RRIRPRPPRLPRPRPRPGEDPRP
shrunken log2 fold change: 0.461

RRIRPRPPRLPRPRPRPGFDPRP
shrunken log2 fold change: 0.131

RRIRPRPPRLPRPRPRPGFPPRP
shrunken log2 fold change: 0.355

RRIRPRPPRLPRPRPRPGFQPRP
shrunken log2 fold change: 0.215

RRIRPRPPRLPRPRPRPGHPPRP
shrunken log2 fold change: -0.12

RRIRPRPPRLPRPRPRPGITPRP
shrunken log2 fold change: -0.138

RRIRPRPPRLPRPRPRPGKDPRP
shrunken log2 fold change: 0.0142

RRIRPRPPRLPRPRPRPGKIPRP
shrunken log2 fold change: -0.168

RRIRPRPPRLPRPRPRPGMLPRP
shrunken log2 fold change: -0.0338

RRIRPRPPRLPRPRPRPGQMPRP
shrunken log2 fold change: -0.0125

RRIRPRPPRLPRPRPRPGQPPRP
shrunken log2 fold change: -0.0656

RRIRPRPPRLPRPRPRPGRMPRP
shrunken log2 fold change: 0.318

RRIRPRPPRLPRPRPRPGSTPRP
shrunken log2 fold change: 0.123

RRIRPRPPRLPRPRPRPGYCPRP
shrunken log2 fold change: -0.147

RRIRPRPPRLPRPRPRPGYPPRP
shrunken log2 fold change: -0.0289

RRIRPRPPRLPRPRPRPGYVPRP
shrunken log2 fold change: -0.401

RRIRPRPPRLPRPRPRPHAGPRP
shrunken log2 fold change: 1.77

RRIRPRPPRLPRPRPRPHDKPRP
shrunken log2 fold change: -0.271

RRIRPRPPRLPRPRPRPHENPRP
shrunken log2 fold change: -0.0875

RRIRPRPPRLPRPRPRPHFMPRP
shrunken log2 fold change: -0.231

RRIRPRPPRLPRPRPRPHFSPRP
shrunken log2 fold change: -0.108

RRIRPRPPRLPRPRPRPHHNPRP
shrunken log2 fold change: -0.859

RRIRPRPPRLPRPRPRPHICPRP
shrunken log2 fold change: -0.0442

RRIRPRPPRLPRPRPRPHIQPRP
shrunken log2 fold change: -0.312

RRIRPRPPRLPRPRPRPHKKPRP
shrunken log2 fold change: 0.165

RRIRPRPPRLPRPRPRPHKNPRP
shrunken log2 fold change: -0.0554

RRIRPRPPRLPRPRPRPHNLPRP
shrunken log2 fold change: -0.131

RRIRPRPPRLPRPRPRPHPSPRP
shrunken log2 fold change: 0.000134

RRIRPRPPRLPRPRPRPHQAPRP
shrunken log2 fold change: 0.0618

RRIRPRPPRLPRPRPRPHQDPRP
shrunken log2 fold change: -0.362

RRIRPRPPRLPRPRPRPHQMPRP
shrunken log2 fold change: 0.0123

RRIRPRPPRLPRPRPRPHSWPRP
shrunken log2 fold change: 0.069

RRIRPRPPRLPRPRPRPHVPPRP
shrunken log2 fold change: 3.25

RRIRPRPPRLPRPRPRPHWFPRP
shrunken log2 fold change: 0.0501

RRIRPRPPRLPRPRPRPHYHPRP
shrunken log2 fold change: -0.936

RRIRPRPPRLPRPRPRPICAPRP
shrunken log2 fold change: 0.0637

RRIRPRPPRLPRPRPRPICIPRP
shrunken log2 fold change: -0.158

RRIRPRPPRLPRPRPRPICWPRP
shrunken log2 fold change: 0.0407

RRIRPRPPRLPRPRPRPIEFPRP
shrunken log2 fold change: -0.114

RRIRPRPPRLPRPRPRPIENPRP
shrunken log2 fold change: -0.414

RRIRPRPPRLPRPRPRPIGKPRP
shrunken log2 fold change: -0.156

RRIRPRPPRLPRPRPRPIHCPRP
shrunken log2 fold change: -0.125

RRIRPRPPRLPRPRPRPIHMPRP
shrunken log2 fold change: -0.23

RRIRPRPPRLPRPRPRPIHRPRP
shrunken log2 fold change: -0.0135

RRIRPRPPRLPRPRPRPIKPPRP
shrunken log2 fold change: -0.0651

RRIRPRPPRLPRPRPRPILSPRP
shrunken log2 fold change: -0.038

RRIRPRPPRLPRPRPRPIMGPRP
shrunken log2 fold change: -0.233

RRIRPRPPRLPRPRPRPINCPRP
shrunken log2 fold change: -0.126

RRIRPRPPRLPRPRPRPINNPRP
shrunken log2 fold change: 0.81

RRIRPRPPRLPRPRPRPIPIPRP
shrunken log2 fold change: -0.065

RRIRPRPPRLPRPRPRPIPSPRP
shrunken log2 fold change: 0.00576

RRIRPRPPRLPRPRPRPIRAPRP
shrunken log2 fold change: -0.106

RRIRPRPPRLPRPRPRPITDPRP
shrunken log2 fold change: -0.16

RRIRPRPPRLPRPRPRPITRPRP
shrunken log2 fold change: 0.31

RRIRPRPPRLPRPRPRPIWMPRP
shrunken log2 fold change: 0.0829

RRIRPRPPRLPRPRPRPIYKPRP
shrunken log2 fold change: -0.333

RRIRPRPPRLPRPRPRPIYLPRP
shrunken log2 fold change: -0.379

RRIRPRPPRLPRPRPRPIYNPRP
shrunken log2 fold change: -0.837

RRIRPRPPRLPRPRPRPKAMPRP
shrunken log2 fold change: 0.000243

RRIRPRPPRLPRPRPRPKDHPRP
shrunken log2 fold change: 0.0743

RRIRPRPPRLPRPRPRPKDKPRP
shrunken log2 fold change: -0.125

RRIRPRPPRLPRPRPRPKDRPRP
shrunken log2 fold change: -0.114

RRIRPRPPRLPRPRPRPKEEPRP
shrunken log2 fold change: 0.0604

RRIRPRPPRLPRPRPRPKGYPRP
shrunken log2 fold change: -0.13

RRIRPRPPRLPRPRPRPKHTPRP
shrunken log2 fold change: -0.198

RRIRPRPPRLPRPRPRPKHYPRP
shrunken log2 fold change: -0.529

RRIRPRPPRLPRPRPRPKKDPRP
shrunken log2 fold change: -0.151

RRIRPRPPRLPRPRPRPKKKPRP
shrunken log2 fold change: -0.192

RRIRPRPPRLPRPRPRPKKVPRP
shrunken log2 fold change: 0.0308

RRIRPRPPRLPRPRPRPKMAPRP
shrunken log2 fold change: -0.0597

RRIRPRPPRLPRPRPRPKPAPRP
shrunken log2 fold change: 0.157

RRIRPRPPRLPRPRPRPKRKPRP
shrunken log2 fold change: 0.238

RRIRPRPPRLPRPRPRPKSAPRP
shrunken log2 fold change: 0.532

RRIRPRPPRLPRPRPRPKTVPRP
shrunken log2 fold change: -0.171

RRIRPRPPRLPRPRPRPKTYPRP
shrunken log2 fold change: -0.451

RRIRPRPPRLPRPRPRPKWEPRP
shrunken log2 fold change: -0.0741

RRIRPRPPRLPRPRPRPKWNPRP
shrunken log2 fold change: -0.0477

RRIRPRPPRLPRPRPRPKWRPRP
shrunken log2 fold change: 0.0676

RRIRPRPPRLPRPRPRPLDFPRP
shrunken log2 fold change: -0.116

RRIRPRPPRLPRPRPRPLDVPRP
shrunken log2 fold change: -0.146

RRIRPRPPRLPRPRPRPLDWPRP
shrunken log2 fold change: 0.349

RRIRPRPPRLPRPRPRPLFDPRP
shrunken log2 fold change: 0.0231

RRIRPRPPRLPRPRPRPLHFPRP
shrunken log2 fold change: -0.207

RRIRPRPPRLPRPRPRPLIAPRP
shrunken log2 fold change: 0.113

RRIRPRPPRLPRPRPRPLIDPRP
shrunken log2 fold change: -0.0112

RRIRPRPPRLPRPRPRPLKPPRP
shrunken log2 fold change: 0.0408

RRIRPRPPRLPRPRPRPLMDPRP
shrunken log2 fold change: -0.145

RRIRPRPPRLPRPRPRPLMFPRP
shrunken log2 fold change: -0.138

RRIRPRPPRLPRPRPRPLNQPRP
shrunken log2 fold change: -0.217

RRIRPRPPRLPRPRPRPLNTPRP
shrunken log2 fold change: -0.482

RRIRPRPPRLPRPRPRPLNVPRP
shrunken log2 fold change: -0.448

RRIRPRPPRLPRPRPRPLPKPRP
shrunken log2 fold change: 0.216
